# Measured values as given in US20250197513A1 (University of Texas, published 2025).
# T1: recombinant OSMR protein (Sino Biologicals, 11226-H08H), extracellular domain of OSMR (UniProt Q99650 28-740)
# T1 construct: extracellular domain; also called OSMR antigen
# T1 sequence (looked up): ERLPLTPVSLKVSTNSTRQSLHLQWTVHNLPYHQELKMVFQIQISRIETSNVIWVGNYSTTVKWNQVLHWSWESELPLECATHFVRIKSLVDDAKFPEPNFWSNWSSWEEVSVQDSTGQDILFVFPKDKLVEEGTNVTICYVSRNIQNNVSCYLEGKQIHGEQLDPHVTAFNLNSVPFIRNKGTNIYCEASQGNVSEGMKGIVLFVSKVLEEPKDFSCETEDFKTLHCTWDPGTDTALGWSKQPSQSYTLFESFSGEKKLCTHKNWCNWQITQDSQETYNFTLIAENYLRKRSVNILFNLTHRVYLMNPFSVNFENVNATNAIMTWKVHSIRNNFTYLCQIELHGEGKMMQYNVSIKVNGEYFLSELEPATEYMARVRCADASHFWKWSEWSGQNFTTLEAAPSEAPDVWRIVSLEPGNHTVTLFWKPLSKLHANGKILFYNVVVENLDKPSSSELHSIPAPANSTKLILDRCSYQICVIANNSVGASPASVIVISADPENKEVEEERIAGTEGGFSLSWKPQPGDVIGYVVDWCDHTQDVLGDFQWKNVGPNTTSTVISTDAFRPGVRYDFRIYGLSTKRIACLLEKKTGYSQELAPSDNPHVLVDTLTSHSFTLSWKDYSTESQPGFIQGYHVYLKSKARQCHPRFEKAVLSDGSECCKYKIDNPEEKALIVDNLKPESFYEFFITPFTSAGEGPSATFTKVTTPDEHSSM
# Target: T1, recombinant OSMR protein (Sino …)
# Assay: screening of full-length IgG1 clones on recombinant OSMR extracellular domain
row,Binder,binding result
1,"B12 monoclonal antibody (antibody, V domains shown, also called B12 mAb) VH: not shown VL: QSALTQPHSVSESPGKTVTISCTRSSGSIANNHVQWYQQRPGSAPIIVIYEDNQRPSGVPDRFSGSIDSSSNSASLTLSGLKTEDEAAYYCQSYDDNNWVFGGGTKVTVL",binds
2,"B05 monoclonal antibody (antibody, V domains shown, also called B05 mAb) VH: QVQLVESGGGVVRPGGSLRLSCAASGFTFDDYGMSWVRQAPGKGLEWVSGINWNGGSTGYADSVKGRFTISRDNAKNSLYLQMNSLRAEDTALYHCARVNYDSSGLRGAFDIWGQGTTVTVSS VL: AIQLTQSPSSLSASVGDRVTITCQASQDISNYLNWYQQKPGKAPKLLIYDASNLETGVPSRFSGSGSGTDFTFTISSLQPEDIATYYCQQYDNLPTFGQGTRLEIK",binds
3,"B16 monoclonal antibody (antibody, V domains shown, also called B016; B16 mAb) VH: QVELVESGGGVVRPGGSLRLSCAASGFTFDDYGMSWVRQAPGKGLEWVSGINWNGGSTGYADSVKGRFTISRDNAKNSLYLQMNSLRAEDTALYHCARVNYDSSGLRGAFDIWGQGTTVTVSS VL: DVQMTQSPSSLSASVGDRVTITCQASQDISNYLNWYQQKPGKAPKLLIYDASNLETGVPSRFSGSGSGTDFTFTISSLQPEDIATYYCQQYDNLPTFGQGTRLEIK",binds
4,"B09 monoclonal antibody (antibody, V domains shown, also called B09 mAb) VH: QVQLVQSGAEVKKPGSSVKVSCKTSGGTFSSYAISWVRQAPGQGLEWMGGIIPISGTANYAQKLQGRVTITADESTSTAYMELSSLRSEDTAVYYCGRGDYCNGGSCSYTNYYGMDVWGQGTMVTVSS VL: QAVVTQPPSASGTPGQRSTISCSGGSANIGSNSVHWYQQFPGTAPKLLIFNNNQRPSGVPDRFSGSKSGTSASLAISGLQSEDEADYFCAAWDDSLKGPVFGGGTKVTVL",binds
5,"B13 monoclonal antibody (antibody, V domains shown, also called B13 mAb) VH: EVQLVQSGAEVKKPGSSVKVSCKASGGTFSSYAITWVRQAPGQGLEWMGGIIPIVGTANYAQKFQGRLTITADESTSTAYMELSSLRSEDTAVYYCARGDYCSGGSCSYTNYYGMDVWGQGTTVTVSS VL: not shown",binds
6,"B17 monoclonal antibody (antibody, V domains shown, also called B17 mAb) VH: QVELQESGPGLVQPSGTLSLTCAVSGGSMGSSNWWSWVRQPPGKGLEWIGEVYHTGSTNYNPSLRSRVTISVDKSKKQFSLELTSVTAADTAVYFCARDLTVTGSFDIWGQGTMVTVSS VL: QAVVTQPRSVSGSPGQSVTISCTGSSSDVGAYNYVSWYQQHPGKAPKLIISDVSDWPSGVPDRFSGSKSGNTASLTISGLQADDEADYYCFSYAGNYNWVFGGGTKLTVL",binds

# Now from value to binder:
row,binding result,Binder
1,binds,"B10 monoclonal antibody (antibody, V domains shown, also called B010; B10 mAb) VH: QVQLVQSGAEVKKPGASVKVSCKASGYTFTSYYMHWVRQAPGQGLEWMGIINPSGGSTSYAQKFQGRVTMTRDTSTSTVYMELSSLRSEDTAVYYCARDKAHDSSGYYDAFDIWGQGTTVTVSS VL: QSALTQPPSASGTPGQRVTISCSGSGSNIGSNTVNWYQQLPGTAPRLLIYRNNQRPSGVPDRFSGSKSGTSASLAISGLESEDEADYFCATWDDSLNDYVFATGTQLTVL"
2,binds,"B08 monoclonal antibody (antibody, V domains shown, also called B08 mAb) VH: QVQLVQSGGGLVKPGGSLRLSCAASGFTFSSYSMNWVRQAPGKGLEWVSSISSSSSYIYYADSVKGRFTISRDNAKNSLYLQMNSLRAEDTAVYYCARDIALPYYGMDVWGQGTMVTVSS VL: not shown"
3,binds,"B19 monoclonal antibody (antibody, V domains shown, also called B19 mAb) VH: QVELVESGGGLVQPGRSLRLSCAASGFTFDDYAMHWVRQAPGKGLEWVSGISWNSGSIGYADSVKGRFTISRDNAKNSLYLQMNSLRAEDTALYYCAKDIGVYYYGMDVWGQGTTVSVSS VL: QSALTQPPSASGTPGQKVTISCSGSSSNIGSSPVNWYQQFPGPAPKLLIHSNNQRPSGVPDRFSGSKSGTSASLAISGLQSDDEADYYCAAWDDSLNAYVFGTGTKVTVL"
